Measurements as given in patent publication US20190338048A1.
Like-named read-outs stand apart in the source and are kept apart here. One block for each substance: values may come before it.

How the values were obtained:
[1] = target: CAT-2200 lambda light chain V133D_Y178T; assay: LCCA, SPR
[2] = target: CAT-2200 lambda light chain V133D_Y178T; assay: LCCA, SPR; remark: listed apart in the source
[3] = target: CAT-2200 lambda light chain T131S_V133D_Y178T; assay: LCCA, SPR
[4] = target: CAT-2200 lambda light chain V133D_Y178T; assay: LCCA, SPR; remark: listed apart in the source
[5] = target: Pertuzumab kappa light chain S131R_V133T_L135K_T178S; assay: LCCA, SPR
[6] = target: Pertuzumab kappa light chain S131K_S176A_T178S; assay: LCCA, SPR
[7] = target: Pertuzumab kappa light chain S131K_T178S; assay: LCCA, SPR
[8] = target: Pertuzumab kappa light chain S131K_S176A_T178S; assay: LCCA, SPR; remark: listed apart in the source
[9] = target: Pertuzumab kappa light chain S131K_T178S; assay: LCCA, SPR; remark: listed apart in the source
[10] = target: Pertuzumab kappa light chain S131K_V133G_S176R (L2), HA-tagged; assay: LCCA, SPR of light-chain tags
[11] = target: Pertuzumab kappa light chain S131R_V133G_S176R (L2), HA-tagged; assay: LCCA, SPR of light-chain tags
[12] = target: Pertuzumab kappa light chain S131K_V133G_S176R (L2), HA-tagged; assay: LCCA, SPR of light-chain tags; remark: listed apart in the source
[13] = target: Pertuzumab kappa light chain S131R_V133G_S176R (L2), HA-tagged; assay: LCCA, SPR of light-chain tags; remark: listed apart in the source
[14] = target: Pertuzumab kappa light chain S131K_V133G_S176R (L2), HA-tagged; assay: LCCA, SPR of light-chain tags; remark: listed apart in the source
[15] = target: Pertuzumab kappa light chain S131R_V133G_S176R (L2), HA-tagged; assay: LCCA, SPR of light-chain tags; remark: listed apart in the source
[16] = target: CAT-2200 lambda light chain T131K_V133S; assay: LCCA, SPR
[17] = target: CAT-2200 lambda light chain T131K_V133S; assay: LCCA, SPR; remark: listed apart in the source
[18] = target: Pertuzumab kappa light chain Q124E_V133D; assay: LCCA, SPR
[19] = target: CAT-2200 lambda light chain E124Q_T131K; assay: LCCA, SPR
[20] = target: CAT-2200 lambda light chain E124Q_T131R; assay: LCCA, SPR
[21] = target: Pertuzumab kappa light chain Q124E_V133D; assay: LCCA, SPR; remark: listed apart in the source
[22] = target: Pertuzumab kappa light chain V133D_Q160E; assay: LCCA, SPR
[23] = target: Pertuzumab kappa light chain V133D; assay: LCCA, SPR
[24] = target: Pertuzumab kappa light chain Q124E_V133D_L135W; assay: LCCA, SPR tag read-out
[25] = target: CAT-2200 lambda light chain E124Q_T131K_V133S; assay: LCCA, SPR tag read-out
[26] = target: Pertuzumab kappa light chain L135A (L2), N-terminal HA tag; assay: LCCA, SPR of light chain tags
[27] = target: Pertuzumab kappa light chain, wild type (L2), N-terminal HA tag; assay: LCCA, SPR of light chain tags
[28] = target: CAT-2200 lambda light chain T116F_S176F (L1), N-terminal FLAG tag; assay: LCCA, SPR of light chain tags
[29] = target: Pertuzumab kappa light chain L135A (L2), N-terminal HA tag; assay: LCCA, SPR of light chain tags; remark: listed apart in the source
[30] = target: Pertuzumab kappa light chain L135A_T178F (L2), N-terminal HA tag; assay: LCCA, SPR of light chain tags
[31] = target: Pertuzumab kappa light chain T178F (L2), N-terminal HA tag; assay: LCCA, SPR of light chain tags
[32] = target: Pertuzumab kappa light chain, wild type (L2), N-terminal HA tag; assay: LCCA, SPR of light chain tags; remark: listed apart in the source
[33] = target: Pertuzumab kappa light chain S176K_T178K; assay: LCCA, SPR
[34] = target: Pertuzumab kappa light chain S176K_T178R; assay: LCCA, SPR
[35] = target: Pertuzumab light chain (kappa) Q124E_V133D, HA-tagged; assay: LCCA
[36] = target: CAT-2200 light chain (lambda) E124Q_T131R, FLAG-tagged; assay: LCCA
[37] = target: Pertuzumab kappa light chain V133G_S176D_T178E; assay: LCCA, SPR
[38] = target: Pertuzumab kappa light chain V133G_S176D_T180E; assay: LCCA, SPR
[39] = target: Pertuzumab kappa light chain V133G_S176D_T178E; assay: LCCA, SPR; remark: listed apart in the source
[40] = target: Pertuzumab kappa light chain V133G_S176D_T180E; assay: LCCA, SPR; remark: listed apart in the source
[41] = target: CAT-2200 lambda light chain E124Q_T131R; assay: LCCA, SPR; remark: listed apart in the source
[42] = target: Pertuzumab kappa light chain V133G_L135W_S176D_T180E; assay: LCCA, SPR tag read-out
[43] = target: Pertuzumab kappa light chain V133G_L135W_S176D_T180E; assay: LCCA, SPR tag read-out; remark: listed apart in the source
[44] = target: Pertuzumab light chain (kappa) Q124E_V133D, HA-tagged; assay: LCCA; remark: listed apart in the source
[45] = target: CAT-2200 light chain (lambda) E124Q_T131K, FLAG-tagged; assay: LCCA
[46] = target: CAT-2200 lambda light chain S176A_Y178W (L1), FLAG-tagged; assay: LCCA, SPR of light-chain tags
[47] = target: Pertuzumab kappa light chain S176A_T178A (L2), HA-tagged; assay: LCCA, SPR of light-chain tags
[48] = target: CAT-2200 lambda light chain E124Q_T131K; assay: LCCA, SPR; remark: listed apart in the source
[49] = target: CAT-2200 lambda light chain E124Q_T131R; assay: LCCA, SPR; remark: listed apart in the source
[50] = target: Pertuzumab kappa light chain Q124R_Q160K_T178R (L2), HA-tagged; assay: LCCA, SPR of light-chain tags
[51] = target: Pertuzumab kappa light chain Q124R_T178R (L2), HA-tagged; assay: LCCA, SPR of light-chain tags
[52] = target: Pertuzumab kappa light chain Q124R_Q160K_T178R (L2), HA-tagged; assay: LCCA, SPR of light-chain tags; remark: listed apart in the source
[53] = target: Pertuzumab kappa light chain Q124R_T178R (L2), HA-tagged; assay: LCCA, SPR of light-chain tags; remark: listed apart in the source
[54] = target: CAT-2200 lambda light chain K129T_V133D; assay: LCCA, SPR
[55] = target: Pertuzumab kappa light chain Q124K_V133A_T178R; assay: LCCA, SPR

H1L1:H1L2 normalized median scalar value ln(r1/f1) [1]: 0.91
H1L1:H1L2 normalized median scalar value ln(r1/f1) [2]: 1.84
H1L1:H1L2 normalized median scalar value ln(r1/f1) [3]: -0.34
H1L1:H1L2 normalized median scalar value ln(r1/f1) [4]: 0.54
Substance: CAT-2200 Fab heavy chain S186K_S188T

H2L2:H2L1 normalized median scalar value ln(r1/f1) [5]: 0.62
Substance: Pertuzumab Fab heavy chain L124E_L143E_K145T

H2L2:H2L1 normalized median scalar value ln(r1/f1) [6]: 1.51
H2L2:H2L1 normalized median scalar value ln(r1/f1) [7]: 0.84
H2L2:H2L1 normalized median ratio [8]: 54%
H2L2:H2L1 normalized median scalar value ln(r1/f1) [8]: 0.15
H2L2:H2L1 normalized median scalar value ln(r1/f1) [9]: -0.25
H2L2:H2L1 normalized median ratio [4]: 46%
Substance: Pertuzumab Fab heavy chain L143T_S188D

H2L2:H2L1 normalized median scalar value ln(r1/f1) [10]: 2.21
H2L2:H2L1 normalized median scalar value ln(r1/f1) [11]: 2.51
H2L2:H2L1 normalized median scalar value ln(r1/f1) [12]: 2.94
H2L2:H2L1 normalized median scalar value ln(r1/f1) [13]: 2.85
H2L2:H2L1 normalized median scalar value ln(r1/f1) [14]: 2.41
H2L2:H2L1 normalized median scalar value ln(r1/f1) [15]: 2.42
Substance: Pertuzumab Fab heavy chain L124E_K145T_Q179E (H2)

H1L1:H1L2 normalized median scalar value ln(r1/f1) [16]: 0.41
H1L1:H1L2 normalized median scalar value ln(r1/f1) [17]: 0.58
Substance: CAT-2200 Fab heavy chain L143D_K145T_Q179E

H2L2:H2L1 normalized median ratio [18]: 91%
H2L2:H2L1 normalized median scalar value ln(r1/f1) [18]: 2.3
H2L2:H2L1 normalized median ratio [19]: 8%
H2L2:H2L1 normalized median ratio [20]: 9%
H2L2:H2L1 normalized median ratio [21]: 92%
H2L2:H2L1 normalized median scalar value ln(r1/f1) [21]: 2.48
Substance: Pertuzumab Fab heavy chain L143K

H2L2:H2L1 normalized median scalar value ln(r1/f1) [22]: 1.5
H2L2:H2L1 normalized median ratio [23]: 72%
H2L2:H2L1 normalized median scalar value ln(r1/f1) [23]: 0.92
H2L2:H2L1 normalized median ratio [16]: 28%
H2L2:H2L1 median scalar value [24]: 1.69 ln(ratio)
H2L2:H2L1 normalized median ratio [24]: 84%
H2L2:H2L1 normalized median ratio [25]: 16%
Substance: Pertuzumab Fab heavy chain L143I_S186K

H2L2:H2L1 normalized median ratio [26]: 42%
H2L2:H2L1 normalized median scalar value ln(r1/f1) [26]: -0.34
H2L2:H2L1 normalized median ratio [27]: 65%
H2L2:H2L1 normalized median scalar value ln(r1/f1) [27]: 0.6
H2L2:H2L1 normalized median ratio [28]: 29%
H2L2:H2L1 normalized median ratio [29]: 44%
H2L2:H2L1 normalized median scalar value ln(r1/f1) [29]: -0.26
H2L2:H2L1 normalized median ratio [30]: 60%
H2L2:H2L1 normalized median scalar value ln(r1/f1) [30]: 0.41
H2L2:H2L1 normalized median ratio [31]: 71%
H2L2:H2L1 normalized median scalar value ln(r1/f1) [31]: 0.9
H2L2:H2L1 normalized median ratio [32]: 62%
H2L2:H2L1 normalized median scalar value ln(r1/f1) [32]: 0.47
Substance: Pertuzumab Fab heavy chain V190F (H2), ABD2-His6 tagged

H2L2:H2L1 normalized median ratio [1]: 16%
H2L2:H2L1 normalized median ratio [33]: 84%
H2L2:H2L1 normalized median scalar value ln(r1/f1) [33]: 1.68
H2L2:H2L1 normalized median scalar value ln(r1/f1) [34]: 1.5
Substance: Pertuzumab Fab heavy chain K145T_V177D_S188D

H2L2:H2L1 normalized median ratio, H2L2 share [35]: 96%
H2L2:H2L1 normalized median scalar value ln(r1/f1) [35]: 3.06
H2L2:H2L1 normalized median ratio (H2L1 share) [36]: 4%
Substance: Pertuzumab heavy chain Fab construct L143R

H2L2:H2L1 normalized median scalar value ln(r1/f1) [37]: 0.69
H2L2:H2L1 normalized median ratio [38]: 73%
H2L2:H2L1 normalized median scalar value ln(r1/f1) [38]: 0.97
H2L2:H2L1 normalized median ratio [19]: 28%
H2L2:H2L1 normalized median ratio [20]: 27%
H2L2:H2L1 normalized median scalar value ln(r1/f1) [39]: 0.77
H2L2:H2L1 normalized median ratio [40]: 72%
H2L2:H2L1 normalized median scalar value ln(r1/f1) [40]: 0.95
H2L2:H2L1 normalized median ratio [41]: 33%
H2L2:H2L1 median scalar value [42]: -0.52 ln(ratio)
H2L2:H2L1 median scalar value [43]: -0.41 ln(ratio)
Substance: Pertuzumab Fab heavy chain L124R_Q179K

H2L2:H2L1 normalized median ratio, H2L2 share [44]: 92%
H2L2:H2L1 normalized median scalar value ln(r1/f1) [44]: 2.48
H2L2:H2L1 normalized median ratio, H2L2 share [35]: 91%
H2L2:H2L1 normalized median scalar value ln(r1/f1) [35]: 2.3
H2L2:H2L1 normalized median ratio (H2L1 share) [45]: 8%
H2L2:H2L1 normalized median ratio (H2L1 share) [36]: 9%
Substance: Pertuzumab heavy chain Fab construct L143K

H2L2:H2L1 normalized median ratio (H2L1 share) [46]: 33%
H2L2:H2L1 normalized median ratio, H2L2 share [47]: 67%
H2L2:H2L1 normalized median scalar value ln(r1/f1) [47]: 0.7
Substance: Pertuzumab Fab heavy chain S186L_S188W (H2)

H1L1:H1L2 normalized median scalar value ln(r1/f1) [19]: -0.04
H1L1:H1L2 normalized median scalar value ln(r1/f1) [20]: 0.28
H1L1:H1L2 normalized median scalar value ln(r1/f1) [48]: 3.04
H1L1:H1L2 normalized median scalar value ln(r1/f1) [41]: 2.87
H1L1:H1L2 normalized median scalar value ln(r1/f1) [49]: 1.65
Substance: CAT-2200 Fab heavy chain L143E_K145T_Q179E

H2L2:H2L1 normalized median scalar value ln(r1/f1) [50]: 2.62
H2L2:H2L1 normalized median scalar value ln(r1/f1) [51]: 2.22
H2L2:H2L1 normalized median scalar value ln(r1/f1) [52]: 3.21
H2L2:H2L1 normalized median scalar value ln(r1/f1) [53]: 3.16
Substance: Pertuzumab Fab heavy chain L143E_K145T_Q179E (H2)

H2L2:H2L1 normalized median ratio [54]: 8%
H2L2:H2L1 normalized median ratio [55]: 92%
H2L2:H2L1 normalized median scalar value ln(r1/f1) [55]: 2.51
Substance: Pertuzumab Fab heavy chain L124W_L143E_K145T_Q179E
